Assay: soluble on expression in E. coli; label from the status in PepcDB or PDB records

Row | Sequence | soluble on expression in E. coli
1 | MHHHHHHSSGRENLYFQGIRMSQILEPRSEEDWTAHRTRIVCTMGPACWNVDTLVKMIDAGMNVCRLNFSHGDHETHARTVQNIQEAMKQRPEARLAILLDTKGPEIRTGFLKDHKPITLQQGATLKIVTDYNLIGDETTIACSYGALPQSVKPGNTILIADGSLSVKVVEVGSDYVITQAQNTATIGERKNMNLPNVKVQLPVIGEKDKHDILNFGIPMGCNFIAASFVQSADDVRYIRGLLGPRGRHIRIIPKIENVEGLVNFDEILAEADGIMIARGDLGMEIPPEKVFLAQKMMIAKCNVVGKPVITATQMLESMIKNPRPTRAEAADVANAVLDGTDCVMLSGETANGEFPVITVETMARICYEAETCVDYPALYRAMCLAVPPPISTQEAVARAAVETAECVNAAIILALTETGQTARLIAKYRPMQPILALSASESTIKHLQVIRGVTTMQVPSFQGTDHVIRNAIVVAKERELVTEGESIVAVHGMKEEVAGSSNLLKVLTVE | soluble
2 | NDDKEAKKEAQEKEKNTPNGLVYTNLDFDSFKATIKNLKDKKVTFKEVNPDIIKDEVFDFVIVNRVLKKIKDLKHYDPMIEKIFDEKGKEMGLNVEIQINPEVKDFFTFKSISTTNKQRCFLSLRGETREILCDNKLYNMLLAVFNSYDPNDLLKHISTVESLKKIFYTITCEAVY | soluble
3 | MGSDKIHHHHHHMKATKRIAEATQESLHRIFTIAEAPDSTLGRLEQEMSQNLVGFLNNHIVASKNALTDIEQDFINARIPEQPEFVSDHMHHLLDKLVAQSVHTSSPSFIGHMTSALPSFILPLSKLMVGLNQNLVKVETSKAFTPLERQVLGMMHNLVYQHDDVFYKNWMHSAEHSLGAFCSGGTVANITALWVARNKLLKADGDFRGVAREGLHRAMRHYGYQDLAILVSDRGHYSLKKSADILGIGQENVIAIPTDEHNKIDCQKLADKCQQLAAQNIKVLAIVGVAGTTETGNIDPLDKIAEIAQQNQCHFHVDAAWGGATLLSNKYRPLLKGIEQADSVTIDAHKQMYVPMGAGLVIFKDPASVSAIEHHAEYILRKGSKDLGSHTLEGSRPGMAMLVYSSLHIISRPGYEMLINQAIEKAEYFADIIHQHDDFELITRPELCLLTYRYAPKSVQALLARNDDEANKSVNMLLGKLTKFIQKRQREDGRSFVSRTRIEVSRYGGEKVIVFRVVLANPLTTKEILQGILQEQCQLAQESEQFLPELLQAAK | not soluble
4 | SMTIGRAKVYATLSKIFYHLFYDEAIPKDCREIIEKFGEIDFNLRSVLVRELRGSVLIKDMPQSLAEVYESVMKDFYERYGFQASELHADHIAVELAFMSKLVEREISLAQQMKEEELYKIRAAQHRFIKAHLQPLVKNLPSAPLLNFVRDFVREDAKYLYSSLVGEKNEGADNN | soluble
5 | MGSDKIHHHHHHMKKEQIIQGPCTIKVLEGEARILGIEIQKNDLLTIPSDKTYTLVYDENTRLETDCKKLLDNLNLRWDEIVEEIINTVGVVLLLGNVDSGKTYLTNLFTNLATSYLKIIDADVGQSTLFLPTFIAELKPMRKTLNLEELGYDTLEFFGDITPSTNPRLHVQKILRLYETTPKERLTVIDTDGWTVGLNSMLHKFELIYTIDPDYIIVFDQKIKDSLPENYRNKAILLKSVNLHKSRSERKANRIAKYERYFKEAKNIKTLSENLLGKQISNILYCAWGEYIQLSDEEPCTDYYIPLNLLKGALLGIIENKKVIGAALLDDLKENEITILSRVNKFTGLVLGYISLNDKFEERRIRFRKCKS | not soluble
6 | MGSDKIHHHHHHMQNPAIGNVADTTASDFAELPATASHGPLRIEYRWVNAAAGNAPIAVFLHEGLGSVTMWRDWPQALCERLGMRGLVYSRPGYGLSTPRPHDVKWPADFMTAQARDILPALLDALCIDMRERRRMWVIGHSDGGSITLLYAALYPEELAGAVAIAPHVFVEDISVESIAQTRQLYETTDLRSKLGRYHADVDSAFYGWNDIWLNPAFRQWSIAGELTSIRKPLLAVQGHDDNYGTMAQIDTIAAHVPHAQLVKLDACGHSPHRDAPQPLNKAIAAFVLKDGVA | not soluble
7 | MTGTVYKLFGNRLLNARNQLDKNLLEMAMQMVYGKDMVTKSGDILIDIQLNKDGSLQSKHYTLDVGEVINSYNIDPLCECFKY | not soluble
8 | MEQRTAEWFQARLGKVTASNIYNVLSKTAKGTPTSKYEEYKIKLMTERLTEEISQSYLTPAMQWGIEHEEDALKEYAIIYDTEVIKCGFIQHPTIEMAGASPDGLIGEEGLVEVKCPHSTKHLRFYMDGTIKPEYKAQMQFQMACTGRQWCDFVSYDPHFVGRSLRLRMKIKRIHRDEKQIEQINQAVEIFLEEIEQEMKQILTQAA | not soluble
9 | MFQQQNDWETRENAFAAFAMGPLTDFWRQREEAEFIGVGNIPVRFVRFRNDSNDRTIVICPGRIESYVKYAELAYDLFHLGFDIFIIDHRGQGRSGRMLSDPHRGHVDHFNDYVEDLAAFWQQEIEPGPWRKRYILAHSMGGAIATLFLQRHRVRCDAIALTAPMFGIVIRLPSFMVRHILDWAEGHQRIREDYAIGTGQWRALPFGMNALTHSRQRYQRNLRFYADEPQLRVGGPTWHWVREGILAGEQVLAGASDDTTPTLLIQAEEERVVDNRTHDRFCEIRAAAGYPCEGGKPLVIKGAYHEILFEKDAMRSVALNAIVEFFNKPNLSSGNRFA | not soluble
10 | MGSDKIHHHHHHMVQAWYMDESTADPRKPHRAQPDRPVSLEQLRTLGVLYWKLDADKYENDPELEKIRKMRNYSWMDIITICKDTLPNYEEKIKMFFEEHLHLDEEIRYILEGSGYFDVRDKEDKWIRISMEKGDMITLPAGIYHRFTLDEKNYVKAMRLFVGEPVWTPYNRPADHFDARVQYMSFLEGTA | soluble
11 | MGSDKIHHHHHHMTISAQCNLQKLAFATTLAVTIVLSQGRAIGQVKHGSPIELAKADVSTAVRQDMANEVRIVGSLTPIRRSTLTSRVSSTIIELPVQIGDVVNAGDLLVRFERGALESAVTGRKAEADALSAQTELAEAVLERNTRLGERGAASEATRLAALADVLDLRAQLRSKQAEVSDAERSLSHAEVRAEFGGVIAARSVEEGQTVPLNTQLMTIVELNRLEVDAGVPTSRIPLIRLKQSVELTVEGFPGRTFSGEVARISPTADAGSRAVRVFIAVDNEEGLLRGGMFTIGDLRVDDQKDVIALPAASIRHDADGFFVLKVEAGVLQRRPVGLGRSWSDRDLVQVSGVSEGDVIVTAPLPDLVVNTPVIIEGI | not soluble
12 | MGSDKIHHHHHHMSHEVDPRVDKTRRRLRQALITLLQTETVDNISVQKLTSTAAVTRGTFYLHYKDKPAFVDQALDDLVSELFETAIVTVSVGDIMTNPADPLQRVHVFSLSKALSYISQHAEAFETLLLDQRQLAVNQRINQQMTTWMTKFHRDFQDQFADLEVPVSIQIAYYVSATVGLITDWLANDMIYTPHYLTKCIKKMHHLMTVGSISFTDFFVK | not soluble
13 | GPGSMAAMASRALISSPSHLLQKFDSCRTIFMCCDIQEKLRNRIPNFQAAVDVSNSMATIHNTLTPKHSTFVVTEQYPKGVGHVAKDITLPEGTPVIEKLQPSMLVPEMMPYIDGDAARGILPVQQAVLWGHETHVCVLQTADELLSRNIRVAVLVDGCASQQQLDHDVAIQEMAGWENLTLTTTISVLLQLSRGDRWIRGALMKVVKPKWADPSRFPSLPADGERPKA | soluble
14 | MAHHHHHHMAKEYPILVVPCKRGGIPCLTPDQARAILNEEERVISVSIFDASEFVDPCKKANQGFAEFCGLGEFRTILTVRSPHIGMHASAPATDAGLCANHEKGRISLGMDKWKEMVLPLRPEIAIPPYDSVSINEPQKKRRRTAMTRSAKWATSADSLQGNGNCKLMKPLCAAENNGEFVFLEELCQNETLQQYTYHVKEAINKGQVMSTAISLPSLLICLKYNVCFIESAIPWILAEKGIGLVFDFNPVSGVSPARYETQIDLNDDCFTKDIRPLSPDCNCYTCKRHMRAYIHHLLTVQEMNSKTLLVIHNLTRLIQLVRLYRILDAEDREALLNWLFAQF | not soluble
15 | MGSDKIHHHHHHMNKKPLVSVYIPTHNRAELLSNAVKSVINQTYKNIEIIICNDGSGDNTDDVVNKLQKEYKDIPFVYLKNDSPMGACFSRNRCIAAASGYYLTGLDDDDYFLPNRIESLIKVCNERKIDLVCSNLIFKDGNKLKRGKNNSGVITSIDMGYENLVGNQLLTRLSYFEDVGGFDTNFPAWQDYDLWYRIIMKFGPCIKTNEATYVMDVENDRKRISTSSKAHIGYRSFIEKHSETLSEEMKSSLFIRDLINRNKKIPLKTLLSSGRKVASFKHNMRLCFPVVNSIAAFVREIKK | not soluble
16 | SMSETFDVELTKNVQGLGITIAGYIGDKKLEPSGIFVKSITKSSAVEHDGRIQIGDQIIAVDGTNLQGFTNQQAVEVLRHTGQTVLLTLMRRGETSV | soluble

Reference: the DeepSol protein solubility set
